# In the DeepSol protein solubility set:
# Assay: soluble on expression in E. coli; label from the status in PepcDB or PDB records
row,Sequence,soluble on expression in E. coli
1,MGSDKIHHHHHHMRYFARIAELGSFTRAASELGVAQPALSLHVRALEDQLGLQLLNRTSRGVVVTEAGQTLLVHAQAILRAVEQAEAATREQAKYPSGDVSLGILSSLSPILSIPVLEACDRRFPKIRLTISEGDSQTLRTATDIHAHDLAVNLLDVAKPTAVPLFDERLYAVGPLNAFTQRQNDLPLREALSLPLIMPSQRHGIRILLEKQALILGQKINIVRVIEGVASTKAAIRAGLGLTILGRGAVYADHQAGQLSVIPLRAPELFRRLVLDMPVNHPPTKAVLEVRQILMEVIKRLGGEGHWSCLA,not soluble
2,GPVGYGAATTGGGNKVPVNVATFEAMQSAIDSYSGSGGLVLNYTGKFDFGTIKDVCAQWKLPAKTVQIKNKSDVTIKGANGSAANFGIRVVGNAHNVIIQNMTIGLLQGGEDADSISLEGNSSGEPSKIWVDHNTVFASLTKCSGAGDASFDGGIDMKKGVHHVTVSYNYVYNYQKVALNGYSDSDTKNSAARTTYHHNRFENVESRVPLQRFGLSHIYNNYFNNVTTSGINVRMGGIAKIESNYFENIKNPVTSRDSSEIGYWDLINNYVGSGITWGTPDGSKPYANATNWISTKVFPESLGYIYTVTPAAQVKAKVIATAGAGKNLAE,soluble
3,MRGSHHHHHHTDPALRARNRTLADLDRVVALGGGHGLGRVLSSLSSLGSRLTGIVTTTDNGGSTGRIRRSEGGIAWGDMRNCLNQLITEPSVASAMFEYRFGGNGELSGHNLGNLMLKALDHLSVRPLEAINLIRNLLKVDTHLIPMSEHPVDLMAIDDQGHEVYGEVNIDQLTTPIQELLLTPNVPATREAVHAINEADLIIIGPGSFYTSLMPILLLKEIAQALRRTPAPMVYIGNLGRELSLPAANLKLESKLAIMEQYVGKKVIDAVIVGPKVDVSAVKERIVIQEVLEASDIPYRHDRQLLHNALEKALQALGGLCGR,soluble
4,KIKRMECFDISHTMGNQTVASCVVFNKEGPLKSDYRRFNIEGITGGDDYAAMEQVLQKRYERDLEEDKIPDIIFIDGGKGQLNRALNVFQHLQVKWDKNRPHLIGVAKGVDRRAGQEVLIISKQDREIHLPDDSLALHLIQHIRDESHNHAISGHRKKRQKAF,not soluble
5,MSEKTFLVEIGTEELPPKALRSLAESFAANFTAELDNAGLAHGTVQWFAAPRRLALKVANLAEAQPDREIEKRGPAIAQAFDAEGKPSKAAEGWARGCGITVDQAERLTTDKGEWLLYRAHVKGESTEALLPNMVATSLAKLPIPKLMRWGASDVHFVRPVHTVTLLLGDKVIPATILGIQSDRVIRGHRFMGEPEFTIDNADQYPEILRERGKVIADYEERKAKIKADAEEAARKIGGNADLSESLLEEVASLVEWPVVLTAKFEEKFLAVPAEALVYTMKGDQKYFPVYANDGKLLPNFIFVANIESKDPQQIISGNEKVVRPRLADAEFFFNTDRKKRLEDNLPRLQTVLFQQQLGTLRDKTDRIQALAGWIAEQIGADVNHATRAGLLSKCDLMTNMVFEFTDTQGVMGMHYARHDGEAEDVAVALNEQYQPRFAGDDLPSNPVACALAIADKMDTLAGIFGIGQHPKGDKDPFALRRAALGVLRIIVEKNLNLDLQTLTEEAVRLYGDKLTNANVVDDVIDFMLGRFRAWYQDEGYTVDTIQAVLARRPTRPADFDARMKAVSHFRTLEAAAALAAANKRVSNILAKSDEVLSDRVNASTLKEPEEIKLAMQVVVLRDKLEPYFAEGRYQDALVELAELREPVDAFFDKVMVMVDDKELRLNRLTMLEKLRELFLRVADISLLQ,not soluble
6,MNPDNLAKLIDELSAMFHPTERDRPHGRWVEAPKSAPPSKRRRSKTAYQLKITLNGIRPPIWRRVLVPGHATFHELHLIIQEAMGWEQAHLYEFDFGSVLIGIPDGWDSFQLEKELMDARRIPLQQWLTEEKQKFLYIYDFGDYWRHTVTVEKIETLPKPLERAACLKGKRACPPEDCGGVYGYLELLEAAAQKDSLADPELRELVDWMYDMKGEDFDPDAFDVEEANERLAYIRL,not soluble
7,MGSDKIHHHHHHMTVLIKEEDFIQSIADGIQFISYYHPVDYIRHLARAYEREESPAARDAMAQILTNSRMCAEGKRPLCQDTGIVNVFLKVGMNVRFDTQRTLQELCDEGVRRGYLNPDNPLRASVLDDPLFARKNTRDNTPCILHVELVPGDTVDVQVASKGGGSENKSKFVMLNPSDSLVDWVLKTVPTMGAGWCPPGMLGIGVGGTAEKAMLMAKQSLMEDIDMYELLARGPQSKLEELRIELYEKVNALGIGAQGLGGLTTVLDVKISTFPTHAASKPVAMIPNCAATRHAHFVLDGSGPARLDPPSLSEWPEVHWAPDYNKSRQVDLDTLTKEEVASWKPGQTLLLSGKMLTGRDAAHKRIQDMLSKGESLPVDFTNRVIYYVGPVDPVRDEVVGPAGPTTATRMDKFTDMMLAQTGLISMIGKSERGPVAIESIRKHGSAYLMAVGGAAYLVSKAIRNAKVLAFEDLGMEAIYEFDVKDMPVTVAVDSQGTSVHTTGPKEWQARIGKIPVAVA,not soluble
8,MCEFKDFRRNIPCFKEYDENSFIGKWYDDGVWDDEEYWKLENDLIEVRKKYPYPMDIPRDIVIGIGTIIDFLMVQNWKLFEIKASTWLPKSVKINERYERFRVMLRYIFTDLDVEDWKFFYFPIQHSKGRLRRKV,not soluble
9,MTFIKRLEDAYETLLGNYPAGVSSTSTSKYNEIRKIVSEAFLIGENEVYVTGTSRRISNLDTRFAQGNQRNKHTRMAVAFISIPSVDDSELDELIIRTRNSAITTSSKFCNGEERGTIFDGILLFLVFEGETKVYPLAFLVFENDFELKEKAEELIPGIELKEYPRANQSPAQENNKSAKNEDEESAKSYVVFLDIEEDGSIVEFVEDKDKTYRIGDMIWTASHTNGSSAITRRLEVIEVVENLVVCKIKHKYNEPVDKNSLLKFVNIEQDLISFLDLHPNVQNGSEGFVSGDIVDENATTSSDDLPEDFENN,not soluble
10,MEEMSMEKIVNDILKEEVYYEKLQNGLDVYFMPKRGFMKKYAILATNYGSNDLEFVPIGEDKKIRVNEGIAHFLEHKMFEQPDGGDAFDKFSKLGVNANAFTNFTMTAYLFSATENFYESLEHLIDYVQTPYFTDENVEKEKGIIAQEIKMYNDDPDWNVYFNCLKAMYVNYPARIDIAGTVDSIYKITKEELYKCYNTFYNPGNMALFVVGDLDVEKVIDVTKKS,not soluble
11,MGSDKIHHHHHHMPTLTEIGNDQLTVQISSLGAEMQSLRTKDGQSLLWHGDAAYWGGRSPILFPIVGKAKDDTLLIDGKPYSMAQHGIARRREFTLLEAGADVCRHELTAGDETKAAYPFDFSLVLEHRLHGAALTVAATVSNRSDTPMPYGLGFHPAFLWPLPGAEGKPHTITLENGAEPPLLRLGGGLLAEEARPSPFHAGRLVLDKSQFEEDAMIFPEGAGTELTYRAEDAASLHFHFENLPNLALWQKPGAPFICIEPWHGMAARHGKSGELTERPYTVILAPGDSARHGFTVTVEA,not soluble
12,MTTRTRILTGITTTGTPHLGNYAGAIRPAIVASRDSNADSFYFLADYHALIKCDDPLRIQRSRQEIAATWLAGGLDVERVTFYRQSDIPEIPELTWLLTCVAAKGLLNRAHAYKASVDKNVEAGEDPDAGITMGLYSYPVLMAADILMFNAHKVPVGRDQIQHVEMARDIGQRFNHLFGQGKEFFTMPEALIEESVATLPGLDGRKMSKSYDNTIPLFTSAKDMKDAISRIVTDSKAPGEAKDPDNSHLFTLYQAFSTPAQAAEFRSELLHGLGWGEAKNRLFQLLDAELGEARERYHQLIARPSDLEDILRAGAVKARAVATPFLNELREAVGLRSFAAQVQVAATTKKKAAKAARFISFREDDGSFRFRLLSADGEQLLLSRNFADGKAAGAVTKQLQSGQELDLRTEGNAFGIWLDGACVADSPDFADASARDAAVDALRIALTPAQDLEHHHHHH,soluble
13,MRQWTAIHLAKLARKASRAVGKRGTDLPGQIARKVDTDVLRKLAEQVDDIVFISGTNGKTTTSNLIGHTLKANNIQIIHNNEGANMAAGITSAFIMQSTPKTKIAVIEIDEGSIPRVLKEVTPSMMVFTNFFRDQMDRFGEIDIMVNNIAETISNKGIKLLLNADDPFVSRLKIASDTIVYYGMKAHAHEFEQSTMNESRYCPNCGRLLQYDYIHYNQIGHYHCQCGFKREQAKYEISSFDVAPFLYLNINDEKYDMKIAGDFNAYNALAAYTVLRELGLNEQTIKNGFETYTSDNGRMQYFKKERKEAMINLAKNPAGMNASLSVGEQLEGEKVYVISLNDNAADGRDTSWIYDADFEKLSKQQIEAIIVTGTRAEELQLRLKLAEVEVPIIVERDIYKATAKTMDYKGFTVAIPNYTSLAPMLEQLNRSFEGGQS,not soluble
